This passage reports Kd results from patent publication US20130338077A1 (INDIANA UNIVERSITY RESEARCH AND TECHNOLOGY, published 2013).

For the test, the target named is T1, recombinant human p65 protein, full-length, with DDK (r-p65:DDK) (human, UniProt Q04206 1-551).
T1 construct: mature; also called full-length r-p65:DDK; p65 subunit of NF-kB; not shown: DDK tag
The experiment in a line: kinetic ELISA, plate-bound GILZ-P probed with r-p65:DDK; Scatchard plot and linear regression; plate-bound GILZ-P (synthetic peptide), not r-GILZ. On the technique in general: In an ELISA, binding on a coated surface is turned into a signal by an enzyme label.

T1 sequence (Q04206 whole entry): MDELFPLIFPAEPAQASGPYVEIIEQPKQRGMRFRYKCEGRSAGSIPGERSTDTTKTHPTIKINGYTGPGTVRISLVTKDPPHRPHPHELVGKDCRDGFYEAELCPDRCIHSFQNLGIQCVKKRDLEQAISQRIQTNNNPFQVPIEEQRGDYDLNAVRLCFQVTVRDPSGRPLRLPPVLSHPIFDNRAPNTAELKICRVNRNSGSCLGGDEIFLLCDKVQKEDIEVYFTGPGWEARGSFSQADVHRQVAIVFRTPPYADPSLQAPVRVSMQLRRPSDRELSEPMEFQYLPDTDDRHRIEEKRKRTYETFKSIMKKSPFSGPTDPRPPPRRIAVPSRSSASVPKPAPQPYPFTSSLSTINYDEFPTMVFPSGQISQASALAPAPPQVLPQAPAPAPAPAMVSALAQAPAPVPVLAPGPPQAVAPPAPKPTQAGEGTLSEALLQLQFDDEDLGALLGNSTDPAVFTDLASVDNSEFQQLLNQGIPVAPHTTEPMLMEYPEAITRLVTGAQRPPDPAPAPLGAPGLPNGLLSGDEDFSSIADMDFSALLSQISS

Ac-CLSPEEPAPESPQVPEAPGGSAV-NH2 (also called GILZ-WT; GILZ-P115-137) [GILZ-peptide (GILZ-P), synthetic peptide from the carboxy terminus of GILZ]: the Kd (in general, the constant that tells how readily two partners part at equilibrium) came to 1120 nM.
